Data from the Human Domainome abundance scans (Beltran et al. 2025).
± gives the uncertainty stated by the source.

B1: Death-inducer obliterator 1, residues 263 to 321; numbered along this chain, Q9BTC0 (parent)
chain: GYDPNALYCICRQPHNNRFMICCDRCEEWFHGDCVGISEARGRLLERNGEDYICPNCTI

Variants of: B1
Test: abundance fitness (aPCA) (normalised: wild type 0, dead -1); higher = more abundant; growth selection in yeast, the domain comes from the species named
Settings: Homo sapiens

Abundance fitness of substitutions, site by site:
E46: G -0.089 ± 0.087 | Q -0.218 ± 0.21 | R 0.021 ± 0.066 | F -0.16 ± 0.1 | P -0.189 ± 0.12 | A 0.163 ± 0.12 | L -0.109 ± 0.083 | W -0.265 ± 0.2 | K 0.079 ± 0.088 | C 0.155 ± 0.13 | T 0.106 ± 0.11 | M -0.055 ± 0.071 | V 0.044 ± 0.063 | N -0.009 ± 0.19 | H -0.663 ± 0.45 | Y 0.065 ± 0.17 | I -0.265 ± 0.12 | S -0.064 ± 0.09
A40: H -0.182 ± 0.25 | P -0.143 ± 0.11 | Y -0.094 ± 0.12 | F -0.262 ± 0.086 | G -0.11 ± 0.068 | C 0.151 ± 0.1 | L 0.043 ± 0.05 | V -0.146 ± 0.06 | N -0.434 ± 0.28 | M 0.004 ± 0.082 | W -0.193 ± 0.07 | S -0.022 ± 0.084 | T -0.077 ± 0.085 | Q -0.315 ± 0.14 | D -0.019 ± 0.071 | R -0.205 ± 0.093
R41: L -0.078 ± 0.071 | Q -0.193 ± 0.24 | P 0.135 ± 0.093 | F -0.133 ± 0.15 | S 0.041 ± 0.085 | T -0.099 ± 0.094 | I -0.157 ± 0.13 | K -0.008 ± 0.1 | V 0.075 ± 0.068 | M -0.05 ± 0.088 | G 0.037 ± 0.058 | Y -0.065 ± 0.17 | C 0.062 ± 0.08 | N 0.24 ± 0.12 | W -0.443 ± 0.16 | D 0.347 ± 0.2 | A 0.075 ± 0.082 | E 0.085 ± 0.11
I37: D -0.447 ± 0.21 | E -0.054 ± 0.07 | Y 0.094 ± 0.086 | P -0.253 ± 0.088 | K 0.168 ± 0.097 | M -0.208 ± 0.11 | V -0.12 ± 0.072 | S -0.133 ± 0.072 | G -0.122 ± 0.053 | Q 0.091 ± 0.066 | C -0.113 ± 0.12 | A -0.127 ± 0.061 | W 0.061 ± 0.049 | T 0.062 ± 0.09 | L -0.054 ± 0.062 | F -0.095 ± 0.097 | H -0.076 ± 0.14 | R -0.017 ± 0.057
Y52: Q -0.256 ± 0.14 | V -0.151 ± 0.084 | M -0.598 ± 0.26 | R -0.227 ± 0.07 | W 0.09 ± 0.045 | E -0.172 ± 0.092 | K -0.181 ± 0.12 | L -0.032 ± 0.081 | G -0.357 ± 0.099 | H -0.493 ± 0.17 | C -0.275 ± 0.44 | T -0.03 ± 0.12 | F 0.009 ± 0.094 | S -0.235 ± 0.077 | I -0.196 ± 0.13 | N -0.334 ± 0.42
I53: H -0.093 ± 0.13 | R -0.024 ± 0.097 | Q -0.03 ± 0.15 | A 0.059 ± 0.089 | G -0.136 ± 0.064 | C 0.063 ± 0.11 | Y 0.149 ± 0.21 | L 0.132 ± 0.081 | E 0.172 ± 0.17 | M 0.269 ± 0.19 | S 0.02 ± 0.087 | P -0.419 ± 0.14 | N 0.328 ± 0.22 | V -0.028 ± 0.074 | K 0.355 ± 0.12
S38: C -0.166 ± 0.16 | F -0.238 ± 0.13 | V 0.071 ± 0.067 | K -0.17 ± 0.11 | P 0.001 ± 0.065 | Y -0.193 ± 0.1 | H -0.033 ± 0.15 | T 0.027 ± 0.071 | A -0.053 ± 0.13 | G 0.03 ± 0.1 | L -0.076 ± 0.059 | N -0.245 ± 0.34 | D 0.197 ± 0.081 | I 0.155 ± 0.13 | R -0.13 ± 0.056 | Q -0.251 ± 0.13 | W -0.109 ± 0.2 | E -0.146 ± 0.13 | M 0.118 ± 0.12
R47: I 0.058 ± 0.092 | P 0.186 ± 0.083 | L 0.079 ± 0.071 | D 0.268 ± 0.16 | E -0.043 ± 0.13 | V 0.188 ± 0.09 | A 0.083 ± 0.093 | Q -0.346 ± 0.38 | W -0.062 ± 0.11 | K 0.359 ± 0.075 | N -0.05 ± 0.2 | G 0.111 ± 0.083 | Y -0.286 ± 0.11 | T 0.134 ± 0.12 | S 0.037 ± 0.072 | F -0.204 ± 0.11 | M -0.155 ± 0.17
P55: D -0.66 ± 0.38 | C -0.098 ± 0.092 | F -0.4 ± 0.16 | E -0.116 ± 0.16 | N -0.365 ± 0.2 | M -0.112 ± 0.091 | L -0.011 ± 0.074 | G -0.531 ± 0.23 | A 0.078 ± 0.066 | Q 0.109 ± 0.15 | I -0.156 ± 0.096 | K 0.265 ± 0.082 | H -0.04 ± 0.11
V35: S -0.403 ± 0.069 | Q -0.183 ± 0.1 | K -0.407 ± 0.077 | I 0.159 ± 0.066 | R -0.387 ± 0.07 | T -0.095 ± 0.074 | Y -0.707 ± 0.12 | P -0.345 ± 0.083 | G -0.333 ± 0.083 | W -0.61 ± 0.16 | N -0.171 ± 0.099 | M -0.043 ± 0.066
G42: M 0.096 ± 0.067 | L 0.062 ± 0.048 | F -0.029 ± 0.1 | R 0.315 ± 0.073 | I 0.193 ± 0.21 | S -0.051 ± 0.13 | C 0.065 ± 0.18 | V 0.069 ± 0.072 | W 0.29 ± 0.086 | Y 0.067 ± 0.082 | E 0.25 ± 0.14 | D -0.044 ± 0.12 | T 0.017 ± 0.093 | N 0.334 ± 0.17 | P -0.151 ± 0.11 | H 0.245 ± 0.12 | Q 0.048 ± 0.13
G49: Y 0.01 ± 0.26 | N 0.11 ± 0.16 | C -0.216 ± 0.4 | T -0.047 ± 0.1 | W -0.462 ± 0.17 | I -0.016 ± 0.12 | M -0.002 ± 0.095 | E 0.283 ± 0.13 | R -0.066 ± 0.087 | K 0.163 ± 0.16 | H 0.1 ± 0.11 | Q -0.145 ± 0.22 | A 0.052 ± 0.11 | V -0.199 ± 0.2 | F -0.243 ± 0.17 | D -0.299 ± 0.18 | L -0.089 ± 0.16 | S 0.173 ± 0.19
G36: L -0.135 ± 0.061 | W -0.469 ± 0.1 | M 0.009 ± 0.062 | Y -0.066 ± 0.069 | D 0.038 ± 0.082 | P -0.425 ± 0.13 | I -0.15 ± 0.096 | Q 0.013 ± 0.084 | A -0.153 ± 0.089 | F -0.256 ± 0.12 | S -0.002 ± 0.058 | H -0.111 ± 0.14 | C -0.122 ± 0.092 | V -0.173 ± 0.059 | E 0.057 ± 0.072 | R -0.072 ± 0.047
C54: I -1 ± 0.24 | L -1.19 ± 0.23 | E -0.781 ± 0.16 | N -0.811 ± 0.25 | K -0.571 ± 0.15 | P -0.821 ± 0.2 | G -1.15 ± 0.18 | Q -0.405 ± 0.21 | H -0.245 ± 0.11 | Y -1.24 ± 0.26 | S -0.723 ± 0.12 | M -0.991 ± 0.25 | D -0.999 ± 0.28 | V -0.674 ± 0.097 | T -0.65 ± 0.17
L44: N 0.121 ± 0.065 | V -0.045 ± 0.062 | D -0.063 ± 0.085 | G 0.08 ± 0.061 | C -0.026 ± 0.065 | H 0.108 ± 0.15 | R 0.08 ± 0.049 | F 0.097 ± 0.067 | S 0.021 ± 0.056 | M 0.029 ± 0.14 | P 0.092 ± 0.06 | K 0.048 ± 0.079 | W -0.015 ± 0.075 | T -0.069 ± 0.11 | Q 0.047 ± 0.081 | Y -0.028 ± 0.08 | A 0.03 ± 0.058 | I -0.238 ± 0.12
E50: C -0.461 ± 0.17 | V -0.041 ± 0.11 | G -0.046 ± 0.099 | N -0.027 ± 0.13 | L -0.201 ± 0.094 | P 0.068 ± 0.14 | M -0.157 ± 0.11 | W -0.356 ± 0.2 | R -0.273 ± 0.13 | H -0.006 ± 0.24 | Y -0.58 ± 0.16 | A -0.011 ± 0.11 | F -0.019 ± 0.21 | T 0.037 ± 0.14 | D -0.005 ± 0.13 | I -0.14 ± 0.12 | K 0.04 ± 0.26 | S -0.192 ± 0.094
R43: K 0.057 ± 0.2 | A 0.143 ± 0.15 | S 0.114 ± 0.059 | I 0.081 ± 0.095 | G 0.103 ± 0.092 | W -0.132 ± 0.17 | M 0.017 ± 0.12 | F -0.318 ± 0.097 | D -0.292 ± 0.2 | P 0.182 ± 0.078 | L 0.029 ± 0.064 | H 0.154 ± 0.18 | C 0.188 ± 0.13 | E 0.133 ± 0.12 | V -0.202 ± 0.097 | N 0.044 ± 0.2 | Q 0.059 ± 0.14 | Y -0.044 ± 0.089 | T -0.049 ± 0.11
E39: L -0.055 ± 0.062 | F -0.043 ± 0.081 | Q -0.048 ± 0.11 | W -0.143 ± 0.1 | I -0.226 ± 0.13 | V -0.036 ± 0.061 | R -0.037 ± 0.074 | T -0.213 ± 0.08 | P -0.257 ± 0.086 | S -0.061 ± 0.066 | A -0.262 ± 0.066 | G -0.217 ± 0.049 | Y -0.22 ± 0.098 | N -0.017 ± 0.073 | M -0.21 ± 0.11 | H -0.277 ± 0.22 | D -0.144 ± 0.084
D51: P -0.289 ± 0.38 | W -0.612 ± 0.22 | K -0.216 ± 0.34 | H -0.169 ± 0.15 | Q 0.135 ± 0.13 | F -0.203 ± 0.25 | G 0.088 ± 0.098 | S 0.07 ± 0.074 | E 0.029 ± 0.1 | C -0.094 ± 0.12 | R 0.013 ± 0.088 | L -0.332 ± 0.09 | I -0.135 ± 0.18 | N -0.18 ± 0.12 | Y 0.177 ± 0.1 | T -0.004 ± 0.11 | A 0.142 ± 0.093 | M -0.367 ± 0.15
L45: C -0.062 ± 0.097 | V 0.016 ± 0.064 | G -0.068 ± 0.059 | K -0.173 ± 0.14 | I -0.214 ± 0.24 | P -0.014 ± 0.094 | T -0.08 ± 0.15 | H 0.152 ± 0.091 | D -0.01 ± 0.13 | M -0.096 ± 0.11 | S 0.033 ± 0.07 | R -0.005 ± 0.064 | W -0.14 ± 0.094 | E 0.075 ± 0.11 | Y -0.055 ± 0.095 | F -0.295 ± 0.15
